# Molecular target: human HLA-A24 and β2-microglobulin (human)
# Experiment: MHC-peptide complex formation assay with human HLA-A24 and β2m (procedures of Example 1), sandwich ELISA, relative to positive control peptide
row,Binder,Relative binding (%)
1,"CYGKCARCI [TAL6 peptide No. 1 of Table 2, …]",126%
2,"HSLVGLALL [TAL6 peptide No. 2 of Table 2, …]",61.7%
3,"LYFPNGETKY [TAL6 peptide No. 4 of Table 2, …]",85%
4,"KYASENHLS [TAL6 peptide No. 5 of Table 2, …]",64.6%
5,"RFVWFFSGI [TAL6 peptide No. 6 of Table 2, …]",91.9%
6,"FFSGIVGGGL [TAL6 peptide No. 7 of Table 2, …]",72.4%
7,"GYCVIVAAL [TAL6 peptide No. 8 of Table 2, …]",118%
8,"TFASTEGQY [TAL6 peptide No. 9 of Table 2, …]",49.2%
9,"TFASTEGQYL [TAL6 peptide No. 10 of Table 2, …]",116%
10,"QYLLDTSTW [TAL6 peptide No. 11 of Table 2, …]",111%
11,"HIVEWNVSLF [TAL6 peptide No. 12 of Table 2, …]",28%
12,"IVEWNVSLF [TAL6 peptide No. 13 of Table 2, …]",41%
13,"EWNVSLFSI [TAL6 peptide No. 14 of Table 2, …]",74%
14,"EWNVSLFSIL [TAL6 peptide No. 15 of Table 2, …]",22.2%
15,"GGIEFILCL [TAL6 peptide No. 16 of Table 2, …]",25.3%
16,"GGIEFILCLI [TAL6 peptide No. 17 of Table 2, …]",14.8%

# Source: patent publication US20110038894A1
